Source: the Human Domainome abundance scans (Beltran et al. 2025)
± gives the uncertainty stated by the source.

B1: PDZ and LIM domain protein 2, residues 284 to 339; numbered along this chain, Q96JY6 (parent)
chain: HTCEKCSTSIANQAVRIQEGRYRHPGCYTCADCGLNLKMRGHFWVGDELYCEKHAR

Variants of: B1
Assay: abundance fitness (aPCA) (normalised: wild type 0, dead -1); higher = more abundant; growth selection in yeast, the domain comes from the species named
Details: Homo sapiens

HTCEKCSTSIANQAVRIQEGRYRMPGCYTCADCGLNLKMRGHFWVGDELYCEKHAR [H24M] and HTCEKCSTSIANQAVRIQEGRYRRPGCYTCADCGLNLKMRGHFWVGDELYCEKHAR [H24R] are within error of each other in abundance fitness: -0.492 ± 0.09 for the first, -0.435 ± 0.083 for the second.

First: HTCEKCSTSIANQAVRIQEGRYRKPGCYTCADCGLNLKMRGHFWVGDELYCEKHAR [H24K]
Second: HTCEKCSTSMANQAVRIQEGRYRHPGCYTCADCGLNLKMRGHFWVGDELYCEKHAR [I10M]
The abundance fitness of the first is higher: -0.193 ± 0.11 for the first, -0.425 ± 0.092 for the second.

Compared with HTCEKCSTSIANQAVRIQEGRYRHPGCYTCADCGLNLKMRGHFWVGDELYCESHAR [K53S], HTCEKCSTSIANQAVRIQEGRYRHPGCYTCADCGLNLKMRGHFWVGDELYCEAHAR [K53A] is lower in abundance fitness: 0.184 ± 0.088 for the first, -0.198 ± 0.13 for the second.

First: HTCEKCSTSIANQAVRIQEGRYRHPGCYTCADCGLNLKMRGHFWVGDELYCEFHAR [K53F]
Second: HTCEKCSTSIAGQAVRIQEGRYRHPGCYTCADCGLNLKMRGHFWVGDELYCEKHAR [N12G]
The abundance fitness of the first is higher: -0.089 ± 0.19 for the first, -0.408 ± 0.063 for the second.

First: HTCEKCSTSIANQAVRIQEGRYRHPVCYTCADCGLNLKMRGHFWVGDELYCEKHAR [G26V]
Second: HTCEKCSTSIANQAVRIQEGRYRHPHCYTCADCGLNLKMRGHFWVGDELYCEKHAR [G26H]
The abundance fitness of the first is lower: 0.101 ± 0.071 for the first, 0.525 ± 0.14 for the second.

Going from HTCEKCSTAIANQAVRIQEGRYRHPGCYTCADCGLNLKMRGHFWVGDELYCEKHAR [S9A] to HTCEKCSTCIANQAVRIQEGRYRHPGCYTCADCGLNLKMRGHFWVGDELYCEKHAR [S9C], the abundance fitness falls from 0.199 ± 0.08 to -0.365 ± 0.073.

Going from HTCEKCSTPIANQAVRIQEGRYRHPGCYTCADCGLNLKMRGHFWVGDELYCEKHAR [S9P] to HTCEKCSTWIANQAVRIQEGRYRHPGCYTCADCGLNLKMRGHFWVGDELYCEKHAR [S9W], the abundance fitness falls from -0.376 ± 0.12 to -1.01 ± 0.14.

HTCEKCSTSIANQAVRIQEGRYRHPGCYTCADCGLNLKMRGHFWVGDELYCEKMAR [H54M] and HTCEKCSTSIANQAVRIQEGRYRHPGCYTCADCGLNLKMRGHFWVGDELYCEKVAR [H54V] are within error of each other in abundance fitness: -0.901 ± 0.25 for the first, -0.612 ± 0.067 for the second.

HTCEKCSTSIANQAVRIQEGCYRHPGCYTCADCGLNLKMRGHFWVGDELYCEKHAR [R21C] and HTCEKCSTSIANQAVRIQEGAYRHPGCYTCADCGLNLKMRGHFWVGDELYCEKHAR [R21A] are within error of each other in abundance fitness: -0.069 ± 0.12 for the first, 0.015 ± 0.071 for the second.

HTCEKCSTSIANQAVRIQEGYYRHPGCYTCADCGLNLKMRGHFWVGDELYCEKHAR [R21Y] and HTCEKCSTSIANQAVRIQEGRYRHPGCYTCADCGLNLKMRGHFWVGDELRCEKHAR [Y50R] are the same in abundance fitness: -0.008 ± 0.11 for the first, -0.008 ± 0.069 for the second.

HTCEKCSTSIANQAVRIQEGRYRHPGCYTCADCGLNLKMRGHFWVGDELLCEKHAR [Y50L] and HTCEKCSTSIANQAVRIQEGRYRHPGCYTCADCGLNLKMRGHFWVGDELDCEKHAR [Y50D] are within error of each other in abundance fitness: -0.039 ± 0.084 for the first, -0.079 ± 0.29 for the second.

HTCEKCSTSIANQAVRIQEGRYRHPGCYTCADCGLNLKMRGHFWVGDELTCEKHAR [Y50T] and HTCEKCSTSIANQAVRIQEGRYRHPGCYTCADCGLNLKMRGHFWVGVELYCEKHAR [D47V] are within error of each other in abundance fitness: -0.289 ± 0.098 for the first, -0.229 ± 0.089 for the second.

HTCEKCSTSIANQAVRIQEGRYRHPGCYTCADCGLNLKMRPHFWVGDELYCEKHAR [G41P] and HTCEKCSTSIANQAVRIQEGRYRHPGCYTCADCGLNLKMRFHFWVGDELYCEKHAR [G41F] are within error of each other in abundance fitness: -0.025 ± 0.12 for the first, -0.259 ± 0.18 for the second.

HTCEKCSTSIANQAVRISEGRYRHPGCYTCADCGLNLKMRGHFWVGDELYCEKHAR [Q18S] and HTCEKCSTSIANQAVYIQEGRYRHPGCYTCADCGLNLKMRGHFWVGDELYCEKHAR [R16Y] are within error of each other in abundance fitness: 0.03 ± 0.084 for the first, 0.029 ± 0.11 for the second.

HTCEKCSTSIANQAVRIQEGRYRHPGCYHCADCGLNLKMRGHFWVGDELYCEKHAR [T29H] and HTCEKCSTSIANQAVRIQEGRYRHPGCYSCADCGLNLKMRGHFWVGDELYCEKHAR [T29S] are within error of each other in abundance fitness: -0.041 ± 0.09 for the first, -0.092 ± 0.081 for the second.

HTCEKCSTSIANQAVRIQEGRYRHPGGYTCADCGLNLKMRGHFWVGDELYCEKHAR [C27G] and HTCEKCSTSIANQAVRIQEGRYRHPGLYTCADCGLNLKMRGHFWVGDELYCEKHAR [C27L] are within error of each other in abundance fitness: -0.514 ± 0.098 for the first, -0.535 ± 0.062 for the second.

Compared with HTCEKCSTSIANQAVRIQEGRYRHPGCYTCADCGLNLKMRGHFWVGDELYQEKHAR [C51Q], HTCEKCSTSIANQAVRIQEGRYRHPGCYTCADCELNLKMRGHFWVGDELYCEKHAR [G34E] is higher in abundance fitness: -0.696 ± 0.35 for the first, -0.146 ± 0.16 for the second.

HTCEKCSTSIANQAVRIQEGRYRHPGCYTCADCQLNLKMRGHFWVGDELYCEKHAR [G34Q] and HTCEKCSTSIANQAVRIQEGRYRHPGCYTCADCNLNLKMRGHFWVGDELYCEKHAR [G34N] are within error of each other in abundance fitness: -0.03 ± 0.12 for the first, 0.108 ± 0.13 for the second.

Compared with HTCEKCSTSIANQAVRIQEGRYRHPGCYTCADCGLNLKMRGHFYVGDELYCEKHAR [W44Y], HTCEKCSTSIANQAVRIQEGRYRHPGCYTCADCGLNLKMRGHFTVGDELYCEKHAR [W44T] is lower in abundance fitness: 0.128 ± 0.19 for the first, -0.232 ± 0.14 for the second.

Compared with HTCEKCSTSIANQAVRIQEGRYRHPGCYTCADCGLNLKMRGHFVVGDELYCEKHAR [W44V], HTCEKCSTSIANQAVRIQEGRYRHPGCYTCADCGLNSKMRGHFWVGDELYCEKHAR [L37S] is lower in abundance fitness: 0.044 ± 0.09 for the first, -0.614 ± 0.12 for the second.

HTCEKCSTSIANQAVRIQEGRYRHPGCYTCADCGLNWKMRGHFWVGDELYCEKHAR [L37W] and QTCEKCSTSIANQAVRIQEGRYRHPGCYTCADCGLNLKMRGHFWVGDELYCEKHAR [H1Q] are within error of each other in abundance fitness: -0.731 ± 0.17 for the first, -0.669 ± 0.25 for the second.

Going from HTCEKCSTSIANQAVRIQEGRYRHPGCYTCADCGLNLKMRGHWWVGDELYCEKHAR [F43W] to HTCEKCSTSIANQAVRIQEGRYRHPGCYTCADCGLNLKMRGHQWVGDELYCEKHAR [F43Q], the abundance fitness falls from 0.099 ± 0.074 to -0.26 ± 0.13.

HTCEKCSTSIANQAVRIQEGRYRHPGCYTCADCGLNLKMFGHFWVGDELYCEKHAR [R40F] and HTCEKCSTSIANQAVRIQEGRYRHPGCYTCADCGLNLKMIGHFWVGDELYCEKHAR [R40I] are within error of each other in abundance fitness: -0.156 ± 0.098 for the first, -0.293 ± 0.12 for the second.

HTCEKCSTSIANQAVRIQEGRYRHPGCYTCADCGLNLKMAGHFWVGDELYCEKHAR [R40A] showed an abundance fitness of 0.041 ± 0.12.
